Source: the supplement of paper PMC10567573

B1: VPS39 (parent)
chain: ITEEKVCMVCKKKIGNSAFARYPN

Variants of: B1
Test: protein stability index of a GFP-peptide fusion (GPS, HEK-293T) (PSI 1-6); higher = more stable
Settings: c terminus: a fixed tail appended
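Also: lentivirally expressed fusions sorted by FACS into six bins by GFP to DsRed ratio, PSI derived from sequencing read proportions per bin multiplied by bin number.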

Point of comparison: ITEEKVCMHCKKKIGNSAFARYPN [V9H], protein stability index 2.87. Against it:
- ITEEKVCMVCKKKAGNSAFARYPN [I14A] — lower, 2.56
- ITEEKVCMVCKTKIGNSAFARYPN [K12T] — lower, 1.77
- ITEEKVCMVCKVKIGNSAFARYPN [K12V] — lower, 1.74
- ITEEKVCMVCKFKIGNSAFARYPN [K12F] — lower, 1.68
- ITEEKVCMVCKDKIGNSAFARYPN [K12D] — lower, 2.63
- ITEEKVCMVCKRKIGNSAFARYPN [K12R] — lower, 1.83
- ITEEKVCMVCKWKIGNSAFARYPN [K12W] — lower, 2.18
- ITEEKVCMVCKQKIGNSAFARYPN [K12Q] — lower, 2.25
- ITEEKVCMVCKEKIGNSAFARYPN [K12E] — lower, 2.46
- ITEEKVCMVCKMKIGNSAFARYPN [K12M] — lower, 1.64
- ITEEKVCMVCKGKIGNSAFARYPN [K12G] — lower, 1.97
- ITEEKVCMVCKHKIGNSAFARYPN [K12H] — lower, 2.28
- ITEEKVCMVCKCKIGNSAFARYPN [K12C] — higher, 2.93
- ITEEKVCMVCKLKIGNSAFARYPN [K12L] — lower, 1.3
- ITEEKVCMVCKYKIGNSAFARYPN [K12Y] — lower, 1.88
- ITEEKVCMVCKNKIGNSAFARYPN [K12N] — lower, 2.8
- ITEEKVCMVCKPKIGNSAFARYPN [K12P] — lower, 2.25
- ITEEKVCMVCKAKIGNSAFARYPN [K12A] — lower, 2.28
- ITEEKVCMVCKSKIGNSAFARYPN [K12S] — lower, 2.36
- ITEEKVCMVRKKKIGNSAFARYPN [C10R] — higher, 3.96
- ITEEKVCMVKKKKIGNSAFARYPN [C10K] — lower, 2.77
- ITEEKVCMVPKKKIGNSAFARYPN [C10P] — higher, 3.97
- ITEEKVCMVFKKKIGNSAFARYPN [C10F] — lower, 2.04
- ITEEKVCMVEKKKIGNSAFARYPN [C10E] — higher, 4.15
- ITEEKVCMVYKKKIGNSAFARYPN [C10Y] — lower, 2.64
- ITEEKVCMVIKKKIGNSAFARYPN [C10I] — lower, 2.45
- ITEEKVCMVLKKKIGNSAFARYPN [C10L] — lower, 2.38
- ITEEKVCMVMKKKIGNSAFARYPN [C10M] — higher, 2.94
- ITEEKVCMVSKKKIGNSAFARYPN [C10S] — higher, 4.14
- ITEEKVCMVDKKKIGNSAFARYPN [C10D] — higher, 3.67
- ITEEKVCMVWKKKIGNSAFARYPN [C10W] — lower, 2.59
- ITEEKVCMVVKKKIGNSAFARYPN [C10V] — lower, 2.84
- ITEEKVCMVHKKKIGNSAFARYPN [C10H] — higher, 3.32
- ITEEKVCMVGKKKIGNSAFARYPN [C10G] — higher, 4.21
- ITEEKVCMVAKKKIGNSAFARYPN [C10A] — higher, 3.13
- ITEEKVCMVNKKKIGNSAFARYPN [C10N] — higher, 4.14
- ITEEKVCMCCKKKIGNSAFARYPN [V9C] — lower, 2.67
- ITEEKVCMICKKKIGNSAFARYPN [V9I] — lower, 2.06
- ITEEKVCMYCKKKIGNSAFARYPN [V9Y] — lower, 1.99
- ITEEKVCMQCKKKIGNSAFARYPN [V9Q] — higher, 3.4
- ITEEKVCMNCKKKIGNSAFARYPN [V9N] — higher, 3.33
- ITEEKVCMACKKKIGNSAFARYPN [V9A] — higher, 3.05
- ITEEKVCMTCKKKIGNSAFARYPN [V9T] — lower, 2.51
- ITEEKVCMMCKKKIGNSAFARYPN [V9M] — lower, 2.69
- ITEEKVCMECKKKIGNSAFARYPN [V9E] — higher, 3.53
- ITEEKVCMGCKKKIGNSAFARYPN [V9G] — higher, 3.1
- ITEEKVCMSCKKKIGNSAFARYPN [V9S] — higher, 3.35
- ITEEKVCMLCKKKIGNSAFARYPN [V9L] — lower, 2.83
- ITEEKVCMFCKKKIGNSAFARYPN [V9F] — lower, 2.27
- ITEEKVCMDCKKKIGNSAFARYPN [V9D] — lower, 2.71
- ITEEKVCMWCKKKIGNSAFARYPN [V9W] — lower, 2.34
- ITEEKVCMRCKKKIGNSAFARYPN [V9R] — higher, 3.61
- ITEEKVCMKCKKKIGNSAFARYPN [V9K] — higher, 3.58
- ITEEKVCMPCKKKIGNSAFARYPN [V9P] — higher, 3.59
- ITEEKVCMVCKKTIGNSAFARYPN [K13T] — lower, 1.83
- ITEEKVCMVCKKIIGNSAFARYPN [K13I] — lower, 2.02
- ITEEKVCMVCKKAIGNSAFARYPN [K13A] — lower, 1.7
- ITEEKVCMVCKKDIGNSAFARYPN [K13D] — lower, 2.73
- ITEEKVCMVCKKEIGNSAFARYPN [K13E] — higher, 3.04
- ITEEKVCMVCKKNIGNSAFARYPN [K13N] — lower, 2.33
- ITEEKVCMVCKKWIGNSAFARYPN [K13W] — lower, 1.52
- ITEEKVCMVCKKCIGNSAFARYPN [K13C] — lower, 2.01
- ITEEKVCMVCKKPIGNSAFARYPN [K13P] — lower, 2.27
- ITEEKVCMVCKKQIGNSAFARYPN [K13Q] — lower, 2.6
- ITEEKVCMVCKKMIGNSAFARYPN [K13M] — lower, 2.07
- ITEEKVCMVCKKYIGNSAFARYPN [K13Y] — lower, 2.11
- ITEEKVCMVCKKFIGNSAFARYPN [K13F] — lower, 2.28
- ITEEKVCMVCKKLIGNSAFARYPN [K13L] — lower, 1.64
- ITEEKVCMVCKKSIGNSAFARYPN [K13S] — lower, 2.36
- ITEEKVCMVCKKRIGNSAFARYPN [K13R] — lower, 2.29
- ITEEKVCMVCKKGIGNSAFARYPN [K13G] — lower, 1.35
- ITEEKVCMVCKKVIGNSAFARYPN [K13V] — lower, 1.98
- ITEEKVCMVCKKHIGNSAFARYPN [K13H] — lower, 2.01
- ITEEKVCYVCKKKIGNSAFARYPN [M8Y] — lower, 1.94
- ITEEKVCMVCRKKIGNSAFARYPN [K11R] — lower, 1.98
- ITEEKVCMVCPKKIGNSAFARYPN [K11P] — lower, 2.76
- ITEEKVCMVCCKKIGNSAFARYPN [K11C] — lower, 1.42
- ITEEKVCMVCYKKIGNSAFARYPN [K11Y] — lower, 2.12
- ITEEKVCMVCEKKIGNSAFARYPN [K11E] — lower, 2.75
- ITEEKVCMVCLKKIGNSAFARYPN [K11L] — lower, 1.42
- ITEEKVCMVCAKKIGNSAFARYPN [K11A] — lower, 2.19
- ITEEKVCMVCSKKIGNSAFARYPN [K11S] — lower, 1.7
- ITEEKVCMVCDKKIGNSAFARYPN [K11D] — higher, 3.21
- ITEEKVCMVCNKKIGNSAFARYPN [K11N] — lower, 1.81
- ITEEKVCMVCTKKIGNSAFARYPN [K11T] — lower, 2.2
- ITEEKVCMVCMKKIGNSAFARYPN [K11M] — lower, 1.66
- ITEEKVCMVCWKKIGNSAFARYPN [K11W] — lower, 1.69
- ITEEKVCMVCIKKIGNSAFARYPN [K11I] — lower, 1.85
- ITEEKVCMVCQKKIGNSAFARYPN [K11Q] — lower, 2.29
- ITEEKVCMVCVKKIGNSAFARYPN [K11V] — lower, 2.23
- ITEEKVCMVCHKKIGNSAFARYPN [K11H] — lower, 1.74
- ITEEKVCMVCFKKIGNSAFARYPN [K11F] — lower, 1.54
- ITEEKVCMVCGKKIGNSAFARYPN [K11G] — lower, 2.58
